The values below come from publication PMC9352680, “A comprehensive thermodynamic model for RNA binding by the Saccharomyces cerevisiae Pumilio protein PUF4”.

The target in the data set is T1, PUF4 RNA-binding domain (Saccharomyces cerevisiae, UniProt P25339 537-888).
T1 sequence: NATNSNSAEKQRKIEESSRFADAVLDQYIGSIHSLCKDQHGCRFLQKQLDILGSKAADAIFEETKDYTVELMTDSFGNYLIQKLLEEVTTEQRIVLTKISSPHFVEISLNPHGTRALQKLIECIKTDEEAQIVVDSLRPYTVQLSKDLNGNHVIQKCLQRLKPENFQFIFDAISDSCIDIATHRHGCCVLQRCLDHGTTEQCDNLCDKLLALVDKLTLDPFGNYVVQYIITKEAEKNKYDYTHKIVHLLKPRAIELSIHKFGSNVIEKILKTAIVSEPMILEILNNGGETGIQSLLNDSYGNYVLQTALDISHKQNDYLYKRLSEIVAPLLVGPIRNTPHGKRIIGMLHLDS
As to the kind of experiment: Mg; RNA-MaP; 20 mM Na-HEPES pH 7.4, 30 mM KOAc, 0.75 mM MgCl2, 0.1% Tween-20, 5% glycerol, 0.1 mg/mL BSA, 2 mM DTT; 25 C; 0.0125-409.6 nM protein. Conditions: tags: N-His6-TEV cleaved; C-SNAP kept, Cy3B-labelled; label: tethered on chip by stalled RNA polymerase.

Usually Kd stands for a measure of binding affinity in units of concentration. A higher Kd goes with a looser complex.

B1: Ic_S2_P4E.1_K4.1_C4.1_H4.1_A4.1_[T5C]_F4.1_[A9C]_T4.1 (ssRNA)
RNA: UUUGAUUAAUAUGAUAUCGUUCUUUCUUGUACAUUCUUCUUUCUCGAUAUCAUAUUAAUCUUU
B1 displayed a Kd of 2.72 nM.

B2: Ia_S2_P4E.1_K4.1_C4.1_H4.1_[T1A]_A4.1_F4.1_T4.1 (ssRNA)
RNA: UUUGAUUAAUAUGAUAUCGUUCUUUCUAGUAUAUUAUUCUUUCUCGAUAUCAUAUUAAUCUUU
In turn, B2 registered a Kd of 103 nM.

B3: Ib_S2_P4E.1_K4.1_C4.1_H4.1_[G2A]_[T3A]_A4.1_F4.1_T4.1 (ssRNA)
RNA: UUUGAUUAAUAUGAUAUCGUUCUUUCUUAAAUAUUAUUCUUUCUCGAUAUCAUAUUAAUCUUU
Consider B3, for which the Kd is > 2300 nM.

B4: Ic_S2_P4E.1_K4.1_C4.1_H4.1_A4.1_F4.1_[A9T]_T4.1 (ssRNA)
RNA: UUUGAUUAAUAUGAUAUCGUUCUUUCUUGUAUAUUUUUCUUUCUCGAUAUCAUAUUAAUCUUU
B4: binding was characterised by a dissociation constant (Kd) of 1.55 nM.

B5: Ib_S2_P4E.1_K4.1_C4.1_H4.1_[G2T]_[T3A]_A4.1_F4.1_T4.1 (ssRNA)
RNA: UUUGAUUAAUAUGAUAUCGUUCUUUCUUUAAUAUUAUUCUUUCUCGAUAUCAUAUUAAUCUUU
With B5, the affinity, expressed as Kd, was 2120 nM.

B6: Ic_S2_P4E.1_K4.1_C4.1_H4.1_A4.1_[T7G]_F4.1_[A9G]_T4.1 (ssRNA)
RNA: UUUGAUUAAUAUGAUAUCGUUCUUUCUUGUAUAGUGUUCUUUCUCGAUAUCAUAUUAAUCUUU
As to B6, the Kd was 6.7 nM.

B7: Ib_S2_P4E.1_K4.1_C4.1_H4.1_[G2C]_[T3A]_A4.1_F4.1_T4.1 (ssRNA)
RNA: UUUGAUUAAUAUGAUAUCGUUCUUUCUUCAAUAUUAUUCUUUCUCGAUAUCAUAUUAAUCUUU
Take B7: the Kd is > 2300 nM.

B8: Ib_S2_P4E.1_K4.1_C4.1_H4.1_A4.1_[T7C]_F4.1_[A9T]_T4.1 (ssRNA)
RNA: UUUGAUUAAUAUGAUAUCGUUCUUUCUUGUAUACUUUUCUUUCUCGAUAUCAUAUUAAUCUUU
With B8, the Kd came out at 2.73 nM.

B9: Ib_S2_P4E.1_K4.1_C4.1_H4.1_[G2T]_[A4C]_A4.1_F4.1_T4.1 (ssRNA)
RNA: UUUGAUUAAUAUGAUAUCGUUCUUUCUUUUCUAUUAUUCUUUCUCGAUAUCAUAUUAAUCUUU
Turning to B9, the dissociation constant Kd was > 2300 nM.

B10: Ic_S2_P4E.1_K4.1_C4.1_H4.1_A4.1_[T7G]_F4.1_[A9T]_T4.1 (ssRNA)
RNA: UUUGAUUAAUAUGAUAUCGUUCUUUCUUGUAUAGUUUUCUUUCUCGAUAUCAUAUUAAUCUUU
B10: binding was put at a Kd of 11.6 nM.

B11: Ib_S2_P4E.1_K4.1_C4.1_H4.1_A4.1_[A6T]_F4.1_[A9C]_T4.1 (ssRNA)
RNA: UUUGAUUAAUAUGAUAUCGUUCUUUCUUGUAUUUUCUUCUUUCUCGAUAUCAUAUUAAUCUUU
B11 came in with a Kd of 20.5 nM.

B12: Ib_S2_P4E.1_K4.1_C4.1_H4.1_[G2T]_[A4T]_A4.1_F4.1_T4.1 (ssRNA)
RNA: UUUGAUUAAUAUGAUAUCGUUCUUUCUUUUUUAUUAUUCUUUCUCGAUAUCAUAUUAAUCUUU
Regarding B12, the Kd was > 2300 nM.

B13: Ic_S2_P4E.1_K4.1_C4.1_H4.1_A4.1_[T7A]_F4.1_[A9T]_T4.1 (ssRNA)
RNA: UUUGAUUAAUAUGAUAUCGUUCUUUCUUGUAUAAUUUUCUUUCUCGAUAUCAUAUUAAUCUUU
B13 registered a Kd of 4.33 nM.

B14: Ib_S2_P4E.1_K4.1_C4.1_H4.1_[T1C]_[A4G]_A4.1_F4.1_T4.1 (ssRNA)
RNA: UUUGAUUAAUAUGAUAUCGUUCUUUCUCGUGUAUUAUUCUUUCUCGAUAUCAUAUUAAUCUUU
B14: the equilibrium dissociation constant (Kd) was 7.32 nM.

B15: Ia_S2_P4E.1_K4.1_C4.1_H4.1_[G2C]_A4.1_F4.1_T4.1 (ssRNA)
RNA: UUUGAUUAAUAUGAUAUCGUUCUUUCUUCUAUAUUAUUCUUUCUCGAUAUCAUAUUAAUCUUU
B15 yielded a Kd of 151 nM.

B16: Ib_S2_P4E.1_K4.1_C4.1_H4.1_[T1A]_[G2C]_A4.1_F4.1_T4.1 (ssRNA)
RNA: UUUGAUUAAUAUGAUAUCGUUCUUUCUACUAUAUUAUUCUUUCUCGAUAUCAUAUUAAUCUUU
The molecule B16 registered a dissociation constant (Kd) of 174 nM.

B17: Ib_S2_P4E.1_K4.1_C4.1_H4.1_A4.1_[A6C]_F4.1_[A9T]_T4.1 (ssRNA)
RNA: UUUGAUUAAUAUGAUAUCGUUCUUUCUUGUAUCUUUUUCUUUCUCGAUAUCAUAUUAAUCUUU
Turning to B17, the Kd was 8.41 nM.

B18: Ib_S2_P4E.1_K4.1_C4.1_H4.1_A4.1_[T5A]_F4.1_[A9T]_T4.1 (ssRNA)
RNA: UUUGAUUAAUAUGAUAUCGUUCUUUCUUGUAAAUUUUUCUUUCUCGAUAUCAUAUUAAUCUUU
On to B18, for which the Kd was found to be 11 nM.

B19: Ic_S2_P4E.1_K4.1_C4.1_H4.1_A4.1_[A6C]_F4.1_[A9C]_T4.1 (ssRNA)
RNA: UUUGAUUAAUAUGAUAUCGUUCUUUCUUGUAUCUUCUUCUUUCUCGAUAUCAUAUUAAUCUUU
B19 showed a Kd of 14.5 nM.

B20: Ib_S2_P4E.1_K4.1_C4.1_H4.1_A4.1_[A6G]_F4.1_[A9T]_T4.1 (ssRNA)
RNA: UUUGAUUAAUAUGAUAUCGUUCUUUCUUGUAUGUUUUUCUUUCUCGAUAUCAUAUUAAUCUUU
B20 returned an equilibrium dissociation constant (Kd) of 18.3 nM.

B21: Ib_S2_P4E.1_K4.1_C4.1_H4.1_A4.1_[T7A]_F4.1_[A9C]_T4.1 (ssRNA)
RNA: UUUGAUUAAUAUGAUAUCGUUCUUUCUUGUAUAAUCUUCUUUCUCGAUAUCAUAUUAAUCUUU
In the case of B21, the Kd came out at 12.3 nM.

B22: Ib_S2_P4E.1_K4.1_C4.1_H4.1_[T1A]_[G2A]_A4.1_F4.1_T4.1 (ssRNA)
RNA: UUUGAUUAAUAUGAUAUCGUUCUUUCUAAUAUAUUAUUCUUUCUCGAUAUCAUAUUAAUCUUU
The molecule B22 yielded a Kd of 616 nM.

B23: Ib_S2_P4E.1_K4.1_C4.1_H4.1_[G2A]_[A4G]_A4.1_F4.1_T4.1 (ssRNA)
RNA: UUUGAUUAAUAUGAUAUCGUUCUUUCUUAUGUAUUAUUCUUUCUCGAUAUCAUAUUAAUCUUU
As to B23, the dissociation constant Kd was 13.3 nM.

B24: Ib_S2_P4E.1_K4.1_C4.1_H4.1_A4.1_[A6T]_F4.1_[A9T]_T4.1 (ssRNA)
RNA: UUUGAUUAAUAUGAUAUCGUUCUUUCUUGUAUUUUUUUCUUUCUCGAUAUCAUAUUAAUCUUU
B24 had a Kd of 9.83 nM.

B25: Ib_S2_P4E.1_K4.1_C4.1_H4.1_[T1G]_[A4G]_A4.1_F4.1_T4.1 (ssRNA)
RNA: UUUGAUUAAUAUGAUAUCGUUCUUUCUGGUGUAUUAUUCUUUCUCGAUAUCAUAUUAAUCUUU
Turning to B25, binding was characterised by a dissociation constant (Kd) of 18.6 nM.

B26: Ic_S2_P4E.1_K4.1_C4.1_H4.1_A4.1_[T7A]_F4.1_[A9G]_T4.1 (ssRNA)
RNA: UUUGAUUAAUAUGAUAUCGUUCUUUCUUGUAUAAUGUUCUUUCUCGAUAUCAUAUUAAUCUUU
The molecule B26 gave a Kd of 5.97 nM.

B27: Ib_S2_P4E.1_K4.1_C4.1_H4.1_[T1G]_[A4C]_A4.1_F4.1_T4.1 (ssRNA)
RNA: UUUGAUUAAUAUGAUAUCGUUCUUUCUGGUCUAUUAUUCUUUCUCGAUAUCAUAUUAAUCUUU
B27 yielded a Kd of 1520 nM.

B28: Ib_S2_P4E.1_K4.1_C4.1_H4.1_A4.1_[T5A]_F4.1_[A9C]_T4.1 (ssRNA)
RNA: UUUGAUUAAUAUGAUAUCGUUCUUUCUUGUAAAUUCUUCUUUCUCGAUAUCAUAUUAAUCUUU
With B28, binding was characterised by a dissociation constant (Kd) of 17.1 nM.

B29: Ib_S2_P4E.1_K4.1_C4.1_H4.1_[T1G]_[T3C]_A4.1_F4.1_T4.1 (ssRNA)
RNA: UUUGAUUAAUAUGAUAUCGUUCUUUCUGGCAUAUUAUUCUUUCUCGAUAUCAUAUUAAUCUUU
As for B29, binding was put at a Kd of 222 nM.

B30: Ib_S2_P4E.1_K4.1_C4.1_H4.1_A4.1_[A6G]_F4.1_[A9G]_T4.1 (ssRNA)
RNA: UUUGAUUAAUAUGAUAUCGUUCUUUCUUGUAUGUUGUUCUUUCUCGAUAUCAUAUUAAUCUUU
B30 gave a Kd of 26.5 nM.

B31: Ib_S2_P4E.1_K4.1_C4.1_H4.1_[G2A]_[T3C]_A4.1_F4.1_T4.1 (ssRNA)
RNA: UUUGAUUAAUAUGAUAUCGUUCUUUCUUACAUAUUAUUCUUUCUCGAUAUCAUAUUAAUCUUU
In the case of B31, the affinity, expressed as Kd, was 1430 nM.

B32: Ib_S2_P4E.1_K4.1_C4.1_H4.1_A4.1_[A6C]_F4.1_[A9G]_T4.1 (ssRNA)
RNA: UUUGAUUAAUAUGAUAUCGUUCUUUCUUGUAUCUUGUUCUUUCUCGAUAUCAUAUUAAUCUUU
The molecule B32 registered a Kd of 9.54 nM.

B33: Ib_S2_P4E.1_K4.1_C4.1_H4.1_[T1G]_[G2T]_A4.1_F4.1_T4.1 (ssRNA)
RNA: UUUGAUUAAUAUGAUAUCGUUCUUUCUGUUAUAUUAUUCUUUCUCGAUAUCAUAUUAAUCUUU
For the molecule B33, the Kd was found to be 7.76 nM.
